According to patent US20120321619A1 (Bayer, published 2012):

T1: human C4.4a on transfected A549:hC4.4a cells (human, UniProt O95274 31-326)
T1 sequence: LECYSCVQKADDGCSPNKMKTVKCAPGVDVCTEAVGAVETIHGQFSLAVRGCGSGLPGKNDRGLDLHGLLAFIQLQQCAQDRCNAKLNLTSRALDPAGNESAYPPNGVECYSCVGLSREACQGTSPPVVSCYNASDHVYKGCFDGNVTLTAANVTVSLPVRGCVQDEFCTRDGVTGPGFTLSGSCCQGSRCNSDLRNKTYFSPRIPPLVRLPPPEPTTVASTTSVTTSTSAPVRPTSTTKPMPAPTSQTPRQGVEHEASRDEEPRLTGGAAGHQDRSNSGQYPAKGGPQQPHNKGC

T2: murine C4.4a on transfected CHO-S:mC4.4a cells (mouse, UniProt Q91YK8 33-343)
T2 construct: full length GPI-anchored form, stably transfected; also called Mouse C4.4a:CHO; mC4.4a: CHO
T2 sequence: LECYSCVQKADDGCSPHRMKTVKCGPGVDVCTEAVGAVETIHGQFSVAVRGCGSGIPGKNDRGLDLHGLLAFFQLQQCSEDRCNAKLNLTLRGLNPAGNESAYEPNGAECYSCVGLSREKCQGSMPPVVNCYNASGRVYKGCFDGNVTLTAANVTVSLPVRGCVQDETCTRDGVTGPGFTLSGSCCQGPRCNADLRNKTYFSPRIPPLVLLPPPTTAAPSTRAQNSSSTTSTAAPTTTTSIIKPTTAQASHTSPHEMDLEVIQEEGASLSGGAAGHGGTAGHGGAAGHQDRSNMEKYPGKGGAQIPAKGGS


Experiments:
[1] = target: T1, human C4.4a on transfected A549:hC4.4a …; assay: cell-based or functional assay
[2] = target: T1, human C4.4a on transfected A549:hC4.4a …; assay: FACS titration on transfected A549:hC4.4a cells (printed 'A549:C4.4a'), IgG1 format, phycoerythrin-labelled goat anti-human IgG detection
Method: FACS titration was performed in a 96 well microtiter plate, in which serial dilutions of the primary antibody in a volume of 50 W of FACS buffer (3% FCS, in PBS) were mixed with 50 μl of a cell suspension consisting of 2×10^5 cells/ml which had been detached with Cell Dissociation Solution (1×) Non-enzymatic (Sigma), and resuspended in FACS buffer. Incubation was performed at 4° C. for 1 hour with agitation. Cells were pelleted, washed with FACS buffer and resuspended in 100 μl/well of Phycoerythrin labeled goat anti human IgG (Dianova) solution in FACS buffer. Incubation and washing was performed as before. Analysis of cell-bound antibodies was done at the respective detection wavelength using the FACS Array device. EC₅₀ values were determined from fluorescence medians of duplicates using Swift 8.0 software.

[3] = target: T2, murine C4.4a on transfected …; assay: FACS titration of IgG1 on CHO-S:mC4.4a cells

Row | Binder | internalization t½ [min] into A549:hC4.4a cells (CypHer 5E labeled antibody) [1] [min] | EC50 [2] [nM] | EC50 [3] [nM]
1 | M20-D02 S-A (antibody, human IgG1, V domains shown, tested as human IgG1) VH: EVQLLESGGGLVQPGGSLRLSCAASGFTFSDYQMTWIRQTPGKGLEWVSGVSWNGARTHYADSVKGRFTISRDNSKNTLYLQMNSLRAEDTAVYYCAKGDYLVYSAYYFDSWGQGTLVTVTS VL: not shown | 60 | 4.3 | 1.6
2 | M31-B01 (antibody, human IgG1, V domains shown, tested as human IgG1) VH: EVQLLESGGGLVQPGGSLRLSCAASGFTFSNAWMSWVRQAPGKGLEWVSYISSSGSTIYYADSVKGRFTISRDNSKNTLYLQMNSLRAEDTAVYYCAREGLWAFDYWGQGTLVTVTS VL: QSVLTQPPSASGTPGQRVTISCTGSSSNIGAGYVVHWYQQLPGTAPKLLIYDNNKRPSGVPDRFSGSKSGTSASLAISGLRSEDEADYYCAAWDDRLNGPVFGGGTKLTVLG | 49 | 1.9 | 1.9
